How the values were obtained:
mIgM = biological target: T1, mIgM (Mus musculus, UniProt P01872); test: IgM binding ELISA (mouse IgM); settings: for IgM Binding EC50: mIgM-coated ELISA, half-log dilution 10 μg/ml-0.01 μg/ml
T1 sequence (P01872 1-454): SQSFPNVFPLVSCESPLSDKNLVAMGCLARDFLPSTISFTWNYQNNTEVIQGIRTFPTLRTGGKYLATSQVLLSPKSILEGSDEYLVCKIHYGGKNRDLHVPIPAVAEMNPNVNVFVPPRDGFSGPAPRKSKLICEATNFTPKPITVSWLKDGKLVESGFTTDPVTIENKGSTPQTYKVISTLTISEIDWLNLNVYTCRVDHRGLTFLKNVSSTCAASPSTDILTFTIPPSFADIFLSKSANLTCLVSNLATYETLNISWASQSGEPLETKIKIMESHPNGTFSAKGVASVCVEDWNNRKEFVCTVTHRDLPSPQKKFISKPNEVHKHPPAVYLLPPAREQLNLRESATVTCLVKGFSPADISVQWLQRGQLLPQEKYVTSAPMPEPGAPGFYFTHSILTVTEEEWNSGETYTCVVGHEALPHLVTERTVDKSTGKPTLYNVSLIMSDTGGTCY
Experimental: Reactivity of the DVD-Ig proteins with mIgM was determined by enzyme-linked immunosorbent assay (ELISA). Briefly, each well of an Ultra Cruz 96 well microtiter plate (Santa Cruz Biotechnology, Dallas, Tex.) was coated with mIgM at a concentration of 1 μg/ml in 100 μl of PBS. The plate was covered in plastic wrap and incubated overnight at 4° C. Each well of the plate was then washed 3× with 300 μl of PBST. After the final wash, 200 μl of blocking buffer (1% BSA in PBS) was added to each well and the plate incubated at RT for 2 hours. The plate was then washed as above. Rows B-H of the microtiter plate were filled with 100 μl of dilution buffer (1% BSA in PBST). The DVD-Ig proteins were then diluted to […] in dilution buffer and 147 μl of a DVD-Ig protein was added in duplicate to row A of a 96 well plate. For a ½ log dilution, 47 μl was transferred from row A to row B. The pipette tips were replaced with clean tips and 47 μl from row B was transferred to row C. The serial transfers were repeated as above until row G. To assess the binding of the secondary detection reagent to the coated IgM, the final transfer 47 μl was only transferred from G1-G10 to H1-H10 and wells H11 and H12 were left containing 100 μl of dilution buffer. To maintain a 100 μl assay volume, 47 μl was removed from wells H1-H10 and G11-G12 and discarded. After the serial dilution was completed, the plate was incubated for 1-2 hours at RT. The plate was washed as above and then 100 μl of horseradish peroxidase conjugated goat α-hIgG Fc specific, diluted 1:3,000 in dilution buffer, was added to each well. The plate was incubated for 1 hour at RT and then washed 4× as above. The plate was developed by adding 100 μl of 3′,3′,5′,5′-Tetramethylbenzidine (TMB) substrate solution to each well and incubating the plate in the dark for 10-15 minutes. The enzymatic reaction was stopped by adding 100 μl of 1M H2SO4 to each well. The plate was read at 450 nm on an EnVision 2102 multilabel reader (Perkin Elmer, Waltham, Mass.).
DVD-Ig proteins DVD3751-DVD3760 were characterized by IgM binding assay at half-log dilution starting at 10 μg/ml-0.01 μg/ml according to the method of Example 2.5.
IgM binding ELISA: Titrations of the DVD-Ig™ proteins (10 μg/ml to 0.01 μg/ml) were added to ELISA plates coated with murine IgM. Bound antibody was detected with biotinylated anti-human IgG and streptavidin-HRP. EC50 were calculated from the titration curve using Prism6.

RF B cells = test: Proliferation of B220+ B cells, RF (AM14); assay type: cell-based, mouse
Experimental: Proliferation of B220+ B cells: B cells were purified by magnetic bead separation using CD45R/B220-conjugated magnetic particles (BD Biosciences, San Jose, Calif., USA) and stimulated as described previously (Nundel et al. (2013) J. Leukoc. Biol. 94:865-875) with 15 μg/ml goat anti-mouse IgM F(ab′)2 (Jackson ImmunoResearch), ODN1826 (CpG; Idera Pharmaceuticals), anti-DNA-mAb (Leadbetter et al. (2002) Nature 416:603-607), or DVD-Ig proteins (1 μg/ml). B cell proliferation was assessed by ^3H-thymidine (Amersham Biosciences, Piscataway, N.J., USA) incorporation at 24 hours post-stimulation. For long-term proliferation assays, B220-purified B cells were labeled with a final concentration of 2.5 μM CFSE (Life Technologies) in PBS for 2 minutes. The cells were then washed and cultured for 72 hours in the presence of BLyS (Human Genome Sciences).
FACS for B cells: Multicolor flow cytometry analysis was carried out using a BD LSR II with DIVA software (BD Biosciences). Analysis was conducted with FlowJo software (Tree Star, Ashland, Oreg., USA) Immature and mature B cell ratios were determined using Pacific Blue-B220 and APC-AA4.1 (eBioscience). Dead cells and debris were excluded by forward- and side-scatter. Proliferation was assessed by CFSE dilution. Cell death was ascertained using the DNA stain TO-PRO-3 (Life Technologies) at a final concentration of 20 nM.

Molecule	potency in IgM binding assay (mIgM; among DVD3751-DVD3760)	IgM Binding EC50 (mIgM) [µg/mL]	IgM binding by direct binding ELISA (mIgM; Example 6, FIG. 8B)	level of activation compared with anti-DNA mAb (RF B cells; FIG. 9A,B)	activation / proliferation of RF B cells (RF B cells; Tlr9+/+, 3H-thymidine 24 hours, CFSE 72 hours, FIG. 9)
DVD3759: DVD-Ig: VD1 mIgM (B7.6), SL linker, VD2 DNA(PA4); heavy SEQ ID NO 64, light 65 (antibody) heavy: QVQLKESGPGLVKPSLTLSLTCTVSGFSLNGYGVIWVRQPPGKGLEWMGVIWGNGNTNYNSTLKSRLSISRDTSKSQVFLKMNNLQTEDTAMYFCARSENYYSSPGYFAYWGQGTLVTVSSASTKGPEVQLVESGGGLVKPGGSLKLSCVASGFTFSTYAMSWVRQTPTKRLEWVATISRGGVSTYYPDTVKGRFTISRDNAKNTLYLQMSSLRSEDTAMYYCARPPTIVTTWFAYWGQGTLVTVSS light: NTVMTQSPTSMFISVGDRVTMNCKASQNVGSDVDWYQQKTGQSPKLLISGTSNRYTGVPDRFTGSGSGTDFTLTISNMQAEDLAVYYCLQYNYNPTFGAGTKLELKRTVAAPSVFIFPPDVVMTQTPLSLPVSLGDQASISCRSSQSLVHSNGNTYLHWYLQKPGQSPKLLIYKVSNRFSGVPDRFSGSGSGTDFTLKISRVEAEDLGAYFCSQSTHVPYTFGGPTRLEIKR	highest potency	0.04116	–	–	–
DVD3754: DVD-Ig: VD1 DNA(PA4), SL linker, VD2 mIgM (B7.6); heavy SEQ ID NO 54, light 55 (antibody) heavy: EVQLVESGGGLVKPGGSLKLSCVASGFTFSTYAMSWVRQTPTKRLEWVATISRGGVSTYYPDTVKGRFTISRDNAKNTLYLQMSSLRSEDTAMYYCARPPTIVTTWFAYWGQGTLVTVSSASTKGPQVQLKESGPGLVKPSLTLSLTCTVSGFSLNGYGVIWVRQPPGKGLEWMGVIWGNGNTNYNSTLKSRLSISRDTSKSQVFLKMNNLQTEDTAMYFCARSENYYSSPGYFAYWGQGTLVTVSS light: DVVMTQTPLSLPVSLGDQASISCRSSQSLVHSNGNTYLHWYLQKPGQSPKLLIYKVSNRFSGVPDRFSGSGSGTDFTLKISRVEAEDLGAYFCSQSTHVPYTFGGPTRLEIKRTVAAPSVFIFPPNTVMTQSPTSMFISVGDRVTMNCKASQNVGSDVDWYQQKTGQSPKLLISGTSNRYTGVPDRFTGSGSGTDFTLTISNMQAEDLAVYYCLQYNYNPTFGAGTKLELKR	–	0.1167	intermediate IgM binding affinity	comparable	induced both RF and non-Tg BALB/c B cells

Source: US20150125397A1, “DUAL SPECIFIC BINDING PROTEINS DIRECTED AGAINST IMMUNE CELL RECEPTORS AND AUTOANTIGENS” (ABBVIE INC., priority 2013, published 2015)
